Inhibition of ADCC (cetuximab-mediated ADCC of A431 cells by NK cells) and Inhibition of ADCC (trastuzumab-mediated ADCC of SKBR-3 cells by NK cells) data for two substances are collected here from patent US20130089496A1.

For experiment [1], the target named is FcγRIIIa, F allele at position 158, on NK cells homozygous for F (human) (UniProt P08637). The experiment is described as follows: cell-based or functional assay.
Experiment [2] addresses FcγRIIIa, V allele at position 158, on NK cells homozygous for V (human) (UniProt P08637). The experiment in a line: cell-based or functional assay.

In experiment [1], “aggregated IgG1 expressing GM 17+,1+,2+ allotypes (antibody)” registered an Inhibition of ADCC (cetuximab-mediated ADCC of A431 cells by NK cells) of 50.3% and an Inhibition of ADCC (trastuzumab-mediated ADCC of SKBR-3 cells by NK cells) of 27.8%. In experiment [2], this substance yielded an Inhibition of ADCC (cetuximab-mediated ADCC of A431 cells by NK cells) of 83.3% and an Inhibition of ADCC (trastuzumab-mediated ADCC of SKBR-3 cells by NK cells) of 73.8%.

On to “aggregated IgG1 expressing GM 3+,1-,2- allotypes (antibody)”, for which the Inhibition of ADCC (cetuximab-mediated ADCC of A431 cells by NK cells) in experiment [1] is 76.5%; in experiment [2], 79.4%. Further, the Inhibition of ADCC (trastuzumab-mediated ADCC of SKBR-3 cells by NK cells) stood at 94.5% in experiment [1] and 97.4% in experiment [2].
